Source: patent publication US20260216326A1 (PROMETHEUS BIOSCIENCES, published 2026)

T1: human TL1A (Fitzgerald #30R-AT070) (human, UniProt O95150 72-251, limits assumed)
T1 construct: Coated on the ELISA plate at 1 ug/mL; also called TNFSF15
T1 sequence (looked up): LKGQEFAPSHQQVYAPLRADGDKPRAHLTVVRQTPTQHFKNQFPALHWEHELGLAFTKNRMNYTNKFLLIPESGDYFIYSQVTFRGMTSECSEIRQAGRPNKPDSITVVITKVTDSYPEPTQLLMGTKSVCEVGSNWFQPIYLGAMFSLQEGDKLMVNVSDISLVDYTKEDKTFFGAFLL


Target: T1, human TL1A (Fitzgerald #30R-AT070)
Test: ELISA titration, coated human TL1A, culture supernatant

| Binder | Kd [nM] |
| --- | --- |
| A148 (antibody, human IgG1, V domains shown, human IgG1/kappa (pFuse vectors), culture supernatant) VH: QVQLVQSGAEVKKPGASVKVSCKASGFDIQDTYMHWVRQAPGQGLEWMGRIEPASGHIKYDPKFQVRVTMTRDTSTSTVYMELSSLRSEDTAVYYCARSGGLPDWWGQGTTVTVSS VL: EIVLTQSPGTLSLSPGERATLSCRASSSVSYMYWYQQKPGQAPRPLIYATSNLASGIPDRFSGSGSGTDFTLTISRLEPEDFAVYYCQQWEGNPRTFGGGTKLEIK | 0.046 |
| A62 (antibody, human IgG1, V domains shown, human IgG1/kappa (pFuse vectors), culture supernatant) VH: QVQLVQSGAEVKKPGASVKVSCKASGFDIQDTYMHWVRQAPGQGLEWIGRIDPASGHIKYDPKFQGRVTMTRDTSTSTVYMELSSLRSEDTAVYYCARSGGLPDWWGQGTTVTVSS VL: EIVLTQSPGTLSLSPGERATLSCRASSSVSYMYWYQQKPGQAPRLLIYATSNLASGIPDRFSGSGSGTDFTLTISRLEPEDFAVYYCQQWEGNPRTFGGGTKLEIK | 0.15 |
| A72 (antibody, human IgG1, V domains shown, human IgG1/kappa (pFuse vectors), culture supernatant) VH: QVQLVQSGAEVKKPGASVKVSCKASGFDIQDTYMHWVRQAPGQGLEWMGRIEPASGHIKYDPKFQGRATITTDTSTSTVYMELSSLRSEDTAVYYCARSGGLPDWWGQGTTVTVSS VL: EIVLTQSPGTLSLSPGERATLSCRASSSVSYMYWYQQKPGQAPRLLIYATSNLASGIPDRFSGSGSGTDFTLTISRLEPEDFAVYYCQQWEGNPRTFGGGTKLEIK | 0.159 |
| A63 (antibody, human IgG1, V domains shown, human IgG1/kappa (pFuse vectors), culture supernatant) VH: QVQLVQSGAEVKKPGASVKVSCKASGFDIQDTYMHWVRQAPGQGLEWMGRIEPASGHVKYDPKFQGRVTMTRDTSTSTVYMELSSLRSEDTAVYYCARSGGLPDWWGQGTTVTVSS VL: EIVLTQSPGTLSLSPGERATLSCRASSSVSYMYWYQQKPGQAPRLLIYATSNLASGIPDRFSGSGSGTDFTLTISRLEPEDFAVYYCQQWEGNPRTFGGGTKLEIK | 0.132 |
| A57 (antibody, human IgG1, V domains shown, human IgG1/kappa (pFuse vectors), culture supernatant) VH: QVQLVQSGAEVKKPGASVKVSCKASGFDIQDTYMHWVRQRPGQGLEWMGRIEPASGHIKYDPKFQGRVTMTRDTSTSTVYMELSSLRSEDTAVYYCARSGGLPDWWGQGTTVTVSS VL: EIVLTQSPGTLSLSPGERATLSCRASSSVSYMYWYQQKPGQAPRLLIYATSNLASGIPDRFSGSGSGTDFTLTISRLEPEDFAVYYCQQWEGNPRTFGGGTKLEIK | 0.191 |
| A59 (antibody, human IgG1, V domains shown, human IgG1/kappa (pFuse vectors), culture supernatant) VH: QVQLVQSGAEVKKPGASVKVSCKASGFDIQDTYMHWVKQRPGQGLEWMGRIEPASGHIKYDPKFQGRVTMTRDTSTSTVYMELSSLRSEDTAVYYCARSGGLPDWWGQGTTVTVSS VL: EIVLTQSPGTLSLSPGERATLSCRASSSVSYMYWYQQKPGQAPRLLIYATSNLASGIPDRFSGSGSGTDFTLTISRLEPEDFAVYYCQQWEGNPRTFGGGTKLEIK | 0.136 |
| A60 (antibody, human IgG1, V domains shown, human IgG1/kappa (pFuse vectors), culture supernatant) VH: QVQLVQSGAEVKKPGASVKVSCKASGFDIQDTYMHWVRQAPGQGLEWMGRIDPASGHIKYDPKFQGRVTMTRDTSTSTVYMELSSLRSEDTAVYYCARSGGLPDWWGQGTTVTVSS VL: EIVLTQSPGTLSLSPGERATLSCRASSSVSYMYWYQQKPGQAPRLLIYATSNLASGIPDRFSGSGSGTDFTLTISRLEPEDFAVYYCQQWEGNPRTFGGGTKLEIK | 0.168 |
| A69 (antibody, human IgG1, V domains shown, human IgG1/kappa (pFuse vectors), culture supernatant) VH: EVQLVQSGAEVKKPGASVKVSCKASGFDIQDTYMHWVRQAPGQGLEWMGRIEPASGHIKYDPKFQGRVTMTRDTSTSTVYMELSSLRSEDTAVYYCARSGGLPDWWGQGTTVTVSS VL: EIVLTQSPGTLSLSPGERATLSCRASSSVSYMYWYQQKPGQAPRLLIYATSNLASGIPDRFSGSGSGTDFTLTISRLEPEDFAVYYCQQWEGNPRTFGGGTKLEIK | 0.136 |
| A70 (antibody, human IgG1, V domains shown, human IgG1/kappa (pFuse vectors), culture supernatant) VH: QVQLVQSGAEVKKPGASVKVSCKASGFDIQDTYMHWVRQAPGQGLEWMGRIEPASGHIKYDPKFQGRVTMTTDTSTSTVYMELSSLRSEDTAVYYCARSGGLPDWWGQGTTVTVSS VL: EIVLTQSPGTLSLSPGERATLSCRASSSVSYMYWYQQKPGQAPRLLIYATSNLASGIPDRFSGSGSGTDFTLTISRLEPEDFAVYYCQQWEGNPRTFGGGTKLEIK | 0.149 |
| A66 (antibody, human IgG1, V domains shown, human IgG1/kappa (pFuse vectors), culture supernatant) VH: QVQLVQSGAEVKKPGASVKVSCKASGFDIQDTYMHWVRQAPGQGLEWMGRIEPASGHIKYDPKFQGRVTITRDTSTSTVYMELSSLRSEDTAVYYCARSGGLPDWWGQGTTVTVSS VL: EIVLTQSPGTLSLSPGERATLSCRASSSVSYMYWYQQKPGQAPRLLIYATSNLASGIPDRFSGSGSGTDFTLTISRLEPEDFAVYYCQQWEGNPRTFGGGTKLEIK | 0.15 |
| A71 (antibody, human IgG1, V domains shown, human IgG1/kappa (pFuse vectors), culture supernatant) VH: QVQLVQSGAEVKKPGASVKVSCKASGFDIQDTYMHWVRQAPGQGLEWMGRIEPASGHIKYDPKFQGRVTITTDTSTSTVYMELSSLRSEDTAVYYCARSGGLPDWWGQGTTVTVSS VL: EIVLTQSPGTLSLSPGERATLSCRASSSVSYMYWYQQKPGQAPRLLIYATSNLASGIPDRFSGSGSGTDFTLTISRLEPEDFAVYYCQQWEGNPRTFGGGTKLEIK | 0.15 |

The remaining binders from weak to strong by Kd, led by results:

| Kd [nM] | Binder |
| --- | --- |
| 0.128 | A73 (antibody, human IgG1, V domains shown, human IgG1/kappa (pFuse vectors), culture supernatant) VH: QVQLVQSGAEVKKPGASVKVSCKASGFDIQDTYMHWVRQAPGQGLEWMGRIEPASGHIKYDPKFQGRVTMTTDTSTSTVYMELSSLRSEDTAVYYCARSGGLPDWWGQGTTVTVSS VL: EIVLTQSPGTLSLSPGERATLSCRASSSVSYMYWYQQKPGQAPRPWIYATSNLASGIPDRFSGSGSGTDFTLTISRLEPEDFAVYYCQQWEGNPRTFGGGTKLEIK |
| 0.127 | A61 (antibody, human IgG1, V domains shown, human IgG1/kappa (pFuse vectors), culture supernatant) VH: QVQLVQSGAEVKKPGASVKVSCKASGFDIQDTYMHWVRQAPGQGLEWIGRIEPASGHIKYDPKFQGRVTMTRDTSTSTVYMELSSLRSEDTAVYYCARSGGLPDWWGQGTTVTVSS VL: EIVLTQSPGTLSLSPGERATLSCRASSSVSYMYWYQQKPGQAPRLLIYATSNLASGIPDRFSGSGSGTDFTLTISRLEPEDFAVYYCQQWEGNPRTFGGGTKLEIK |
| 0.112 | A58 (antibody, human IgG1, V domains shown, human IgG1/kappa (pFuse vectors), culture supernatant) VH: QVQLVQSGAEVKKPGASVKVSCKASGFDIQDTYMHWVKQAPGQGLEWMGRIEPASGHIKYDPKFQGRVTMTRDTSTSTVYMELSSLRSEDTAVYYCARSGGLPDWWGQGTTVTVSS VL: EIVLTQSPGTLSLSPGERATLSCRASSSVSYMYWYQQKPGQAPRLLIYATSNLASGIPDRFSGSGSGTDFTLTISRLEPEDFAVYYCQQWEGNPRTFGGGTKLEIK |
| 0.111 | A32 (antibody, V domains shown) VH: DVQLVQSGAEVKKPGASVKVSCKASGFDIQDTYMHWVRQAPGQGLEWMGRIEPASGHIKYDPKFQGRVTMTRDTSTSTVYMELSSLRSEDTAVYYCARSGGLPDWWGQGTTVTVSS VL: EIVLTQSPGTLSLSPGERATLSCRASSSVSYMYWYQQKPGQAPRPWIYATSNLASGIPDRFSGSGSGTDFTLTISRLEPEDFAVYYCQQWEGNPRTFGGGTKLEIK |
| 0.097 | A65 (antibody, human IgG1, V domains shown, human IgG1/kappa (pFuse vectors), culture supernatant) VH: QVQLVQSGAEVKKPGASVKVSCKASGFDIQDTYMHWVRQAPGQGLEWMGRIEPASGHIKYDPKFQGRATMTRDTSTSTVYMELSSLRSEDTAVYYCARSGGLPDWWGQGTTVTVSS VL: EIVLTQSPGTLSLSPGERATLSCRASSSVSYMYWYQQKPGQAPRLLIYATSNLASGIPDRFSGSGSGTDFTLTISRLEPEDFAVYYCQQWEGNPRTFGGGTKLEIK |
| 0.092 | A31 (antibody, human IgG1, V domains shown, human IgG1/kappa (pFuse vectors), culture supernatant) VH: QVQLVQSGAEVKKPGASVKVSCKASGFDIQDTYMHWVRQAPGQGLEWMGRIEPASGHIKYDPKFQGRVTMTRDTSTSTVYMELSSLRSEDTAVYYCARSGGLPDWWGQGTTVTVSS VL: EIVLTQSPGTLSLSPGERATLSCRASSSVSYMYWYQQKPGQAPRPWIYATSNLASGIPDRFSGSGSGTDFTLTISRLEPEDFAVYYCQQWEGNPRTFGGGTKLEIK |
| 0.09 | A64 (antibody, human IgG1, V domains shown, human IgG1/kappa (pFuse vectors), culture supernatant) VH: QVQLVQSGAEVKKPGASVKVSCKASGFDIQDTYMHWVRQAPGQGLEWMGRIEPASGHIKYDPKFQVRVTMTRDTSTSTVYMELSSLRSEDTAVYYCARSGGLPDWWGQGTTVTVSS VL: EIVLTQSPGTLSLSPGERATLSCRASSSVSYMYWYQQKPGQAPRLLIYATSNLASGIPDRFSGSGSGTDFTLTISRLEPEDFAVYYCQQWEGNPRTFGGGTKLEIK |
| 0.089 | A67 (antibody, human IgG1, V domains shown, human IgG1/kappa (pFuse vectors), culture supernatant) VH: QVQLVQSGAEVKKPGASVKVSCKASGFDIQDTYMHWVRQAPGQGLEWMGRIEPASGHIKYDPKFQVRATMTRDTSTSTVYMELSSLRSEDTAVYYCARSGGLPDWWGQGTTVTVSS VL: EIVLTQSPGTLSLSPGERATLSCRASSSVSYMYWYQQKPGQAPRLLIYATSNLASGIPDRFSGSGSGTDFTLTISRLEPEDFAVYYCQQWEGNPRTFGGGTKLEIK |
| 0.081 | A33 (antibody, V domains shown) VH: DVQLVQSGAEVKKPGASVKVSCKASGFDIQDTYMHWVRQAPGQGLEWMGRIEPASGHIKYDPKFQGRVTMTRDTSTSTVYMELSSLRSEDTAVYYCARSGGLPDWWGQGTTVTVSS VL: EIVLTQSPGTLSLSPGERATLSCRASSSVSYMYWYQQKPGQAPRLLIYATSNLASGIPDRFSGSGSGTDFTLTISRLEPEDFAVYYCQQWEGNPRTFGGGTKLEIK |
| 0.074 | A68 (antibody, human IgG1, V domains shown, human IgG1/kappa (pFuse vectors), culture supernatant) VH: QVQLVQSGAEVKKPGASVKVSCKASGFDIQDTYMHWVRQAPGQGLEWMGRIEPASGHIKYDPKFQVRVTITRDTSTSTVYMELSSLRSEDTAVYYCARSGGLPDWWGQGTTVTVSS VL: EIVLTQSPGTLSLSPGERATLSCRASSSVSYMYWYQQKPGQAPRLLIYATSNLASGIPDRFSGSGSGTDFTLTISRLEPEDFAVYYCQQWEGNPRTFGGGTKLEIK |
| 0.065 | A29 (antibody, human IgG1, V domains shown, human IgG1/kappa (pFuse vectors), culture supernatant) VH: QVQLVQSGAEVKKPGASVKVSCKASGFDIQDTYMHWVKQRPGQGLEWIGRIDPASGHTKYDPKFQVRATITTDTSTSTAYLELSSLRSEDTAVYYCARSGGLPDVWGQGTTVTVSS VL: EIVLTQSPGTLSLSPGERATLSCRASSSVSYMYWYQQKPGQAPRPWIYATSNLASGIPDRFSGSGSGTDFTLTISRLEPEDFAVYYCQQWEGNPRTFGGGTKLEIK |
